Experimental data taken from article PMC7018950, “A conserved strategy of chalcone isomerase-like protein to rectify promiscuous chalcone synthase specificity” (Nature Communications, 2020).
One block for each binder: values may come before it.

Key:
[1] = biological target: T1, His6-tagged Arabidopsis thaliana chalcone synthase (AtCHS) (Arabidopsis thaliana, UniProt P13114 1-395); experiment: BLI; BLItz; His6-tagged CHS immobilised on anti-His6 sensors, GST-tagged CHIL loaded (30-150 s), wash (150-270 s); 100 mM HEPES-NaOH, pH 7.5; 1:1 binding model; apparent KD; details: both partners purified
T1 construct: also called TT4; source: E. coli BL21 (pCold I), purified; not shown: His6, N-terminal, kept
T1 sequence (looked up): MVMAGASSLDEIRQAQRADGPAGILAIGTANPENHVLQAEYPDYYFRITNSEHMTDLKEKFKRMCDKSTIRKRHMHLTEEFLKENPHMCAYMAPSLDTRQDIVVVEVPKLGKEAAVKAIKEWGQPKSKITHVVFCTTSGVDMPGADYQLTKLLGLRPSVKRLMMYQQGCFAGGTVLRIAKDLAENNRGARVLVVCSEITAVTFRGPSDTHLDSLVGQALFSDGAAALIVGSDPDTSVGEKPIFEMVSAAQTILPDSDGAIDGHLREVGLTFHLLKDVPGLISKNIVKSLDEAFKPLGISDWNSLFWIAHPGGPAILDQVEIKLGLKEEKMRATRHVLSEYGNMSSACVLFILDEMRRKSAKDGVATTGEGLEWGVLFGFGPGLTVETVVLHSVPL

[2] = biological target: T2, glutathione S-transferase-tagged CHIL of morning glory (Ipomoea nil (morning glory)); experiment: BLI; BLItz; His6-tagged CHS immobilised on anti-His6 sensors, GST-tagged CHIL loaded; 100 mM HEPES-NaOH pH 7.5; 1:1 binding model; apparent KD; details: both partners purified
T2 construct: the purification of the GST fusions is not described; also called InCHIL; EFP; source: E. coli (pGEX4T-1)

Kd [1]: 9.15 nM
koff [1]: 0.00137 s⁻¹
kon [1]: 150000 M⁻¹ s⁻¹
B1: glutathione S-transferase-tagged Arabidopsis thaliana chalcone isomerase-like protein (AtCHIL) (natural protein)
chain: MVMVHEVPFPPQIITSKPLSLLGQGITDIEIHFLQVKFTAIGVYLDPSDVKTHLDNWKGKTGKELAGDDDFFDALASAEMEKVIRVVVIKEIKGAQYGVQLENTVRDRLAEEDKYEEEEETELEKVVGFFQSKYFKANSVITYHFSAKDGICEIGFETEGKEEEKLKVENANVVGMMQRWYLSGSRGVSPSTIVSIADSISAVLT
notes: chalcone isomerase-like protein AtCHIL, Arabidopsis thaliana; source: E. coli (pGEX4T-1)

Kd [2]: 1 nM
B2: His6-tagged CHS of morning glory (enzyme)
chain: MVTVEEVRKAQRAEGPATILAIGTATPANCVDQSTYPDYYFRITNSDHMTDLKQKFQRMCDKSMITKRYMHLTEEILKENPSFCEYMAPSLDARQDIVVVEVPKLGKEAAQSAIKEWGQPKSKITHVIFCTTSGVDMPGADYQLTKLLGLRPSVKRLMMYQQGCFAGGTVLRVAKDLAENNKAARVLVVCSEITVVTFRGPNETHLDSLVGQALFGDGAAAIIVGSDPTPAEKPLFQLVSAAQTLAPDSCGAIDGHLREVGLTFHLLKDVPSIVSNNIEKCLSEAFNPLGISDWNSIFWIAHPGGPAILDQVEDKLGLKPEKLRATRHVLSEYGNMSSACVLFILDEMRKASSNDGLGTTGEGLEWGVLFGFGPGLTIETVVLHSVPA
